Results published in patent US20220332795A1.

Target: human serum albumin (human) (UniProt P02768)
Assay: solution ELISA screen (luminescence)

Sequence of human serum albumin (human) (P02768 25-609 limits assumed): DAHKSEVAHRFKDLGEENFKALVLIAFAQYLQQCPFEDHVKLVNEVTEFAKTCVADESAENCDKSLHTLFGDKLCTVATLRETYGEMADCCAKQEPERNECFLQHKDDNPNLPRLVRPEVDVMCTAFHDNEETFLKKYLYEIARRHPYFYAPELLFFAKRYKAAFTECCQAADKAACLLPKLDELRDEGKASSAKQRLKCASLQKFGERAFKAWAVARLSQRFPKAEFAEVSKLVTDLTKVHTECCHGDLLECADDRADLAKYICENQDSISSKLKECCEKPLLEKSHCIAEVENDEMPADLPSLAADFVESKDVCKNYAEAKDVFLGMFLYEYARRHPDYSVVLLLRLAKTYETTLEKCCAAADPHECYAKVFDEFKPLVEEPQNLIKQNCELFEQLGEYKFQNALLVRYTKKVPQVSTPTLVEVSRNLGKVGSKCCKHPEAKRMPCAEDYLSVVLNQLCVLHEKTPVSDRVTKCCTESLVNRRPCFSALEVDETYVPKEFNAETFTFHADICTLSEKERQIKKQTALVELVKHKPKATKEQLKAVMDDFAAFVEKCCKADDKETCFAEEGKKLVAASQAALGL

Row | Binder | RLU [RLU]
1 | SEQ ID NO 222 (designed binder, not shown: small tags and cut ends) MLPAPKNLVVSRVTEDSARLSWTAPDAAFDSFFIGYLEPQPPGEAIVLDVPGSERSYDLTGLKPGTEYNVTIQGVKGGFPSHPLAAAFTT | 15600
2 | SEQ ID NO 235 (designed binder, not shown: small tags and cut ends) MLPAPKNLVVSRVTEDSARLSWTAPDAAFDSFFIGYLEPQPPGEAIQLTVPGSERSYDLTGLKPGTEYNVTIQGVKGGFPSLPLSADFTT | 23800
3 | SEQ ID NO 219 (designed binder, not shown: small tags and cut ends) MLPAPKNLVVSRVTEDSARLSWTAPDAAFDSFYIAYAEPRPDGEAISLKVPGSERSYDLTGLKPGTEYSVLIHGVKGGLLSSPLEAIFTT | 11800
4 | SEQ ID NO 236 (designed binder, not shown: small tags and cut ends) MLPAPKNLVVSRVTEDSARLSWTAPDAAFDSFYIAYAEPRPDGEAILLQVPGSERSYDLTGLKPGTEYSVLIHGVKGGLLSSPLDAEFTT | 15600
5 | SEQ ID NO 227 (designed binder, not shown: small tags and cut ends) MLPAPKNLVVSRVTEDSARLSWTAPDAAFDSFYIAYAEPRPDGEAIGLRVPGSERSYDLTGLKPGTEYSVLIHGVKGGLLSSPLSAIFTT | 28200
6 | SEQ ID NO 224 (designed binder, not shown: small tags and cut ends) MLPAPKNLVVSRVTEDSARLSWTAPDAAFDSFYIAYAEPRPDGEAILLRVPGSERSYDLTGLKPGTEYSVLIHGVKGGLLSSPLVAEFTT | 26200
7 | SEQ ID NO 239 (designed binder, not shown: small tags and cut ends) MLPAPKNLVVSRVTEDSARLSWTAPDAAFDSFYIAYAEPRPDGEAIQLVVPGSERSYDLTGLKPGTEYSVLIHGVKGGLLSSPLYAIFTT | 21100
8 | SEQ ID NO 226 (designed binder, not shown: small tags and cut ends) MLPAPKNLVVSRVTEDSARLSWTAPDAAFDSFYIAYAEPRPDGEAIGLHVPGSERSYDLTGLKPGTEYSVLIHGVKGGLLSSPLTASFTT | 16000
9 | SEQ ID NO 225 (designed binder, not shown: small tags and cut ends) MLPAPKNLVVSRVTEDSARLSWTAPDAAFDSFYIAYAEPRPDGEAILLQVPGSERSYDLTGLKPGTEYSVLIHGVKGGLLSSPLSASFTT | 17000
10 | SEQ ID NO 233 (designed binder, not shown: small tags and cut ends) MLPAPKNLVVSRVTEDSARLSWTAPDAAFDSFYIAYAEPRPDGEAIQLFVPGSERSYDLTGLKPGTEYSVLIHGVKGGLLSSPLKAYFTT | 22000

Other lines, results leading:

Row | RLU [RLU] | Binder
11 | 59000 | SEQ ID NO 221 (designed binder, not shown: small tags and cut ends) MLPAPKNLVVSRVTEDSARLSWTAPDAAFDSFFIGYLEPQPPGEAIFLDVPGSERSYDLTGLKPGTEYNVTIQGVKGGFPSPLTAFFTT
12 | 18300 | SEQ ID NO 223 (designed binder, not shown: small tags and cut ends) MLPAPKNLVVSRVTEDSARLSWTAPDAAFDSFFIGYLEPQPPGEAIGLAVPGSERSYDLTGLKPGTEYNVTIQGVKGGFPSVPLQANFTT
13 | 20600 | SEQ ID NO 231 (designed binder, not shown: small tags and cut ends) MLPAPKNLVVSRVTEDSARLSWTAPDAAFDSFFIGYLEPQPPGEAIHLYVPGSERSYDLTGLKPGTEYNVTIQGVKGGFPSDPLDAVFTT
14 | 75400 | SEQ ID NO 232 (designed binder, not shown: small tags and cut ends) MLPAPKNLVVSRVTEDSARLSWTAPDAAFDSFFIGYLEPQPPGEAIYLDVPGSERSYDLTGLKPGTEYNVTIQGVKGGFPSTFTT
15 | 32000 | SEQ ID NO 230 (designed binder, not shown: small tags and cut ends) MLPAPKNLVVSRVTEDSARLSWTAPDAAFDSFYIAYAEPRPDGEAIWLLVPGSERSYDLTGLKPGTEYSVLIHGVKGGLLSSPLVAFFTT
16 | 29600 | SEQ ID NO 228 (designed binder, not shown: small tags and cut ends) MLPAPKNLVVSRVTEDSARLSWTAPDAAFDSFYIAYAEPRPDGEAIVLRVPGSERSYDLTGLKPGTEYSVLIHGVKGGLLSSPLAASFTT
17 | 15400 | SEQ ID NO 229 (designed binder, not shown: small tags and cut ends) MLPAPKNLVVSRVTEDSARLSWTAPDAAFDSFYIAYAEPRPDGEAIQLLVPGSERSYDLTGLKPGTEYSVLIHGVKGGLLSSPLVAHFTT
18 | 27700 | SEQ ID NO 237 (designed binder, not shown: small tags and cut ends) MLPAPKNLVVSRVTEDSARLSWTAPDAAFDSFYIAYAEPRPDGEAIVLAVPGSERSYDLTGLKPGTEYSVLIHGVKGGLLSSPLYASFTT
19 | 20800 | SEQ ID NO 234 (designed binder, not shown: small tags and cut ends) MLPAPKNLVVSRVTEDSARLSWTAPDAAFDSFYIAYAEPRPDGEAIVLVVPGSERSYDLTGLKPGTEYSVLIHGVKGGLLSSPLSAIFTT
20 | 18000 | SEQ ID NO 240 (designed binder, not shown: small tags and cut ends) MLPAPKNLVVSRVTEDSARLSWTAPDAAFDSFYIAYAEPRPDGEAISLSVPGSERSYDLTGLKPGTEYSVLIHGVKGGLLSSPLHAKFTT
21 | 99000 | SEQ ID NO 238 (designed binder, not shown: small tags and cut ends) MLPAPKNLVVSRVTEDSARLSWTTPDAAFDSFYIAYAEPRPDGEAIRLQVPGSERSYDLTGLKPGTEYSVLIHGVKGGLLSSPLGFTT
